Consider 20 molecules from patent US7897371B2, “Activation of mutated RAC-PK” (Novartis AG, priority 1995, dated 2011).

Series [1] has as its system GSK3β. In kind it is cell-based, human.
Series [2] deals with T1, p70 S6 kinase (Rattus norvegicus, UniProt P67999).
T1 construct: from tissue; host or cells: rat liver
The note with it: cited from earlier work; for Km: read-out: Km for phosphorylation by p70 S6 kinase.

In series [3] the target is RAC-PKα (Homo sapiens, UniProt P31749).
The test system of series [4] is MAPKAP kinase-1. The conditions noted are these: cited from earlier work.
For series [5], the system named is RAC-PK. Put plainly: RAC-PK activity immunoprecipitated from Swiss 3T3 cells (MBP substrate). In kind it is cell-based. The note with it: for Increase in RAC-PK activity: Swiss 3T3 cells, 1 μM okadaic acid, 0.1 mM vanadate, insulin or 10% FCS.
Series [6] deals with CC(C)C[C@H](NC(=O)[C@H](CO)NC(=O)[C@H](CO)NC(=O)[C@@H](NC(=O)[C@H](CCCNC(=N)N)NC(=O)[C@@H]1CCCN1C(=O)[C@@H](N)CCCNC(=N)N)[C@@H](C)O)C(=O)O. As to the kind of experiment: purified protein, by the assay type. The note with it: other: phosphorylation by RAC-PKα; pH 7.5; 30.0 °C.
The subject of series [7] is C[C@H](NC(=O)[C@H](CO)NC(=O)[C@H](CO)NC(=O)[C@@H](NC(=O)[C@H](CCCNC(=N)N)NC(=O)[C@@H]1CCCN1C(=O)[C@@H](N)CCCNC(=N)N)[C@@H](C)O)C(=O)O. Put plainly: purified protein, by the assay type. The conditions noted are these: other: phosphorylation by RAC-PKα; pH 7.5; 30.0 °C.
Series [8] deals with C[C@@H](O)[C@H](NC(=O)[C@H](CCCNC(=N)N)NC(=O)[C@@H]1CCCN1C(=O)[C@H](CCCNC(=N)N)NC(=O)CN)C(=O)N[C@@H](CO)C(=O)N[C@@H](CO)C(=O)N[C@@H](Cc1ccccc1)C(=O)O. Put plainly: purified protein, by the assay type. The note with it: other: phosphorylation by RAC-PKα; pH 7.5; 30.0 °C.
The test system of series [9] is C[C@H](NC(=O)CNC(=O)[C@H](CCCNC(=N)N)NC(=O)[C@@H]1CCCN1C(=O)[C@@H](N)CCCNC(=N)N)C(=O)N[C@@H](CO)C(=O)N[C@@H](Cc1ccccc1)C(=O)O. Put plainly: purified protein, by the assay type. The note with it: other: phosphorylation by RAC-PKα; pH 7.5; 30.0 °C.
The test system of series [10] is C[C@H](NC(=O)[C@H](Cc1ccccc1)NC(=O)[C@H](CO)NC(=O)[C@H](CO)NC(=O)[C@@H](NC(=O)[C@H](CCCNC(=N)N)NC(=O)[C@H](C)NC(=O)[C@H](CCCNC(=N)N)NC(=O)CN)[C@@H](C)O)C(=O)O. Put plainly: purified protein, by the assay type. The note with it: other: phosphorylation by RAC-PKα; pH 7.5; 30.0 °C.
For series [11], the system named is CC(C)[C@H](NC(=O)[C@H](CCCNC(=N)N)NC(=O)[C@@H]1CCCN1C(=O)[C@@H](N)CCCNC(=N)N)C(=O)N[C@@H](CO)C(=O)N[C@@H](CO)C(=O)N[C@@H](Cc1ccccc1)C(=O)O. Put plainly: purified protein, by the assay type. The note with it: other: phosphorylation by RAC-PKα; pH 7.5; 30.0 °C.
In series [12] the test system is N=C(N)NCCC[C@H](NC(=O)[C@@H]1CCCN1C(=O)[C@@H](N)CCCNC(=N)N)C(=O)NCC(=O)N[C@@H](CO)C(=O)N[C@@H](CO)C(=O)N[C@@H](Cc1ccccc1)C(=O)O. Put plainly: purified protein, by the assay type. The note with it: other: phosphorylation by RAC-PKα; pH 7.5; 30.0 °C.
Series [13] concerns C[C@H](NC(=O)[C@H](C)NC(=O)[C@H](CCCNC(=N)N)NC(=O)[C@@H]1CCCN1C(=O)[C@@H](N)CCCNC(=N)N)C(=O)N[C@H](C(=O)N[C@@H](Cc1ccccc1)C(=O)O)[C@@H](C)O. Put plainly: purified protein, by the assay type. The conditions noted are these: pH 7.5; 30.0 °C.
Series [14] has as its system C[C@H](NC(=O)[C@H](CCCNC(=N)N)NC(=O)[C@@H]1CCCN1C(=O)[C@@H](N)CCCNC(=N)N)C(=O)NCC(=O)N[C@@H](CO)C(=O)N[C@@H](Cc1ccccc1)C(=O)O. As to the kind of experiment: purified protein, by the assay type. The note with it: other: phosphorylation by RAC-PKα; pH 7.5; 30.0 °C.
The test system of series [15] is C[C@H](NC(=O)[C@H](C)NC(=O)[C@H](CCCNC(=N)N)NC(=O)[C@@H]1CCCN1C(=O)[C@@H](N)CCCNC(=N)N)C(=O)N[C@@H](CO)C(=O)N[C@@H](Cc1ccccc1)C(=O)O. As to the kind of experiment: purified protein, by the assay type. The conditions noted are these: other: phosphorylation by RAC-PKα; pH 7.5; 30.0 °C.
Series [16] concerns C[C@@H](O)[C@H](NC(=O)[C@H](CCCNC(=N)N)NC(=O)[C@@H]1CCCN1C(=O)[C@@H](N)CCCNC(=N)N)C(=O)N[C@@H](CO)C(=O)N[C@@H](CO)C(=O)N[C@@H](CCCCN)C(=O)O. Put plainly: purified protein, by the assay type. The note with it: other: phosphorylation by RAC-PKα; pH 7.5; 30.0 °C.
In series [17] the test system is CC(C)[C@H](NC(=O)[C@@H](NC(=O)[C@H](CCCNC(=N)N)NC(=O)[C@@H]1CCCN1C(=O)[C@@H](N)CCCNC(=N)N)[C@@H](C)O)C(=O)N[C@@H](CO)C(=O)N[C@@H](Cc1ccccc1)C(=O)O. Put plainly: purified protein, by the assay type. The note with it: other: phosphorylation by RAC-PKα; pH 7.5; 30.0 °C.
Series [18] has as its system C[C@@H](O)[C@H](NC(=O)[C@H](CCCNC(=N)N)NC(=O)[C@@H]1CCCN1C(=O)[C@@H](N)CCCNC(=N)N)C(=O)NCC(=O)N[C@@H](CO)C(=O)N[C@@H](Cc1ccccc1)C(=O)O. As to the kind of experiment: purified protein, by the assay type. The note with it: other: phosphorylation by RAC-PKα; pH 7.5; 30.0 °C.
Series [19] concerns C[C@@H](O)[C@H](NC(=O)[C@H](CCCNC(=N)N)NC(=O)[C@@H]1CCCN1C(=O)[C@@H](N)CCCNC(=N)N)C(=O)N[C@@H](CC(N)=O)C(=O)N[C@@H](CO)C(=O)N[C@@H](Cc1ccccc1)C(=O)O. As to the kind of experiment: purified protein, by the assay type. The note with it: other: phosphorylation by RAC-PKα; pH 7.5; 30.0 °C.
Series [20] relates to C[C@H](NC(=O)[C@H](Cc1ccccc1)NC(=O)[C@H](CO)NC(=O)[C@H](CO)NC(=O)[C@@H](NC(=O)[C@H](CCCNC(=N)N)NC(=O)[C@@H]1CCCN1C(=O)[C@@H](N)CCCNC(=N)N)[C@@H](C)O)C(=O)O. As to the kind of experiment: purified protein, by the assay type. The conditions noted are these: other: phosphorylation by RAC-PKα; pH 7.5; 30.0 °C.
In series [21] the test system is CC(C)[C@H](NC(=O)[C@H](CO)NC(=O)[C@H](CO)NC(=O)[C@@H](NC(=O)[C@H](CCCNC(=N)N)NC(=O)[C@@H]1CCCN1C(=O)[C@@H](N)CCCNC(=N)N)[C@@H](C)O)C(=O)O. As to the kind of experiment: purified protein, by the assay type. The note with it: other: phosphorylation by RAC-PKα; pH 7.5; 30.0 °C.
In series [22] the test system is RAC-PKα. In kind it is cell-based, human.
For series [23], the system named is RAC-PKα.
For series [24], the system named is GSK3. In kind it is cell-based.
Setting [25] is: values marked *: data reported previously.

Values joined by “and” are separate entries in the source; they are usually repeats but may differ in a detail not shown here. Equal entries are not always repeated. Where two headings read alike, the source gives them in different places. No end group written: not given here.

T1 sequence (P67999 24-525): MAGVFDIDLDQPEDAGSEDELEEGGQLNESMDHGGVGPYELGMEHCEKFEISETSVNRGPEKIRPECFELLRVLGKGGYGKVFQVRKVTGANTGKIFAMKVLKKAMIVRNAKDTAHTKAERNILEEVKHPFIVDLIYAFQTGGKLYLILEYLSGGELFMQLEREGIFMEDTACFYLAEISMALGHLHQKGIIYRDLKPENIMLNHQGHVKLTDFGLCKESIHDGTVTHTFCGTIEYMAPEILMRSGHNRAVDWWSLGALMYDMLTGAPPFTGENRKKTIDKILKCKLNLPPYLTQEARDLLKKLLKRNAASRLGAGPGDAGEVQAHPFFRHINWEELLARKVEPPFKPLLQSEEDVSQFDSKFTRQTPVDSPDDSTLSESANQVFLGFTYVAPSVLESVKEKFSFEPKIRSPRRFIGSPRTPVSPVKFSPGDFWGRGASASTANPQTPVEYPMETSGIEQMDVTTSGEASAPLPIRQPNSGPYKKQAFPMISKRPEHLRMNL
Sequence of RAC-PKα (Homo sapiens, UniProt P31749) (P31749 whole entry): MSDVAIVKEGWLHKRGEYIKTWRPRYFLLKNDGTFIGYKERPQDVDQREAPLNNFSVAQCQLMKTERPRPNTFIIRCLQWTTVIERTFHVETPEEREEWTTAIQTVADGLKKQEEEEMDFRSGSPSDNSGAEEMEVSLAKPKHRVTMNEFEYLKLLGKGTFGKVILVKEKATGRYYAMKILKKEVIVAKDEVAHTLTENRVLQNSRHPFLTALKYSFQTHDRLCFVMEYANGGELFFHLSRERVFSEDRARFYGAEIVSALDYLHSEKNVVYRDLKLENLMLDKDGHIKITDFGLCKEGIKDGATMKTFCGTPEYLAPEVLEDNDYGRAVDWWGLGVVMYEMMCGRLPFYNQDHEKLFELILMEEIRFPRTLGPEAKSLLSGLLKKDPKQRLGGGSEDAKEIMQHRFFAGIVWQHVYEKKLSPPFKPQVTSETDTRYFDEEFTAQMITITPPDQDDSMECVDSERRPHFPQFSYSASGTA
Sequence of GSK3β (P49841 whole entry): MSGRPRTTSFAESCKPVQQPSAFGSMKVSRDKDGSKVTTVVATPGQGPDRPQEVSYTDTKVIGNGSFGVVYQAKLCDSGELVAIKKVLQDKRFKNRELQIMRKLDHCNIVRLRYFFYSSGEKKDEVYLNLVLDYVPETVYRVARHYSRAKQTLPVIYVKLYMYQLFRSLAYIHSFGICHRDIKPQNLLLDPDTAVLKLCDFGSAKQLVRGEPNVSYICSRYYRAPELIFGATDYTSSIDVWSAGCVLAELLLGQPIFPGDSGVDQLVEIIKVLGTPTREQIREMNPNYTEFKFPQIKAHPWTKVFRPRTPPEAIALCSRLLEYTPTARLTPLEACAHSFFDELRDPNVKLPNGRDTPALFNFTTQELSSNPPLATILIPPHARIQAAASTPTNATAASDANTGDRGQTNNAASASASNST

Consider “HA-KD-RAC-PKα: kinase dead mutant, Lys179 changed to Ala”, for which, in [1], the “Increase in GSK3 activity on PP2A treatment” value is on record as roughly 12%.

Consider KKRNRTLSVA, for which, in series [2], the Km was 1.5 µM.

Consider “KKRNKTLSVA [peptide substrate with Lys at position n-3]”, for which the “Phosphorylation by RAC-PKα” value in series [3] is reported as “does not phosphorylate”. Also, the results for the Km in series [4] (read-out: Km for phosphorylation by MAPKAP-K1) and in series [2] were 17 µM and 34 µM, respectively. In addition, in series [4] (setting [25]), the “MAPKAP kinase-1 Vmax (U/mg)” value was 840* U/mg. Further, in series [2] (setting [25]), the “p70 S6 kinase Vmax (U/mg)” value is 760* U/mg.

For RFRGGSF, in [3], the Km stood at 105 µM, the “V (0.1 mM)” value came to 55 and the “Vmax (U/mg)” value came out at 345 U/mg.

Consider `C=C1[C@@H](O)[C@@H]2O[C@]3(CC[C@H](/C=C/[C@@H](C)[C@@H]4CC(C)=C[C@@]5(O[C@H](C[C@@](C)(O)C(=O)O)CC[C@H]5O)O4)O3)CC[C@H]2O[C@@H]1[C@@H](O)C[C@H](C)[C@H]1O[C@@]2(CCCCO2)CC[C@H]1C` [okadaic acid], for which the “Activation of RAC-PK” value in [5] (Swiss 3T3, simultaneous 1 μM okadaic acid and 10% serum) is reported as 5 fold. In addition, in series [5], the “Increase in RAC-PK activity” value turned out to be 3 fold.

As to RPRTSSE [RPRTSSE], in [3] (phosphorylation by RAC-PKα), the Km is greater than 500 µM.

As to GRPRTSSFAEG, the Km in [3] (phosphorylation by RAC-PKα) came to 4 µM.

As to RPRNSSF [RPRNSSF], the Michaelis constant (Km) in series [3] (phosphorylation by RAC-PKα) was greater than 500 µM.

As for RPRTSTF [RPRTSTF], the Km in series [3] (phosphorylation by RAC-PKα) is 30 µM.

Take RAC-PKα (Homo sapiens): the Km in series [6] was 8 µM; in series [7] it was 250 µM; in series [8], 8 µM; in series [9], 105 µM; in series [10], 10 µM; in series [11] it was 25 µM. Also, the Michaelis constant (Km) in series [12] turned out to be 60 µM; in series [13], 25 µM; in series [14] it was 49 µM; in series [15], 25 µM; in series [16] it was 80 µM; in series [17] it was 30 µM. Also, the Km in series [18] came to 25 µM; in series [19], 30 µM; in series [20], 8 µM; in [21] it was 21 µM. Also, the Vmax in series [6] was 278 U/mg; in series [7] it was 265 U/mg; in series [8] it was 385 U/mg; in [9] it was 160 U/mg; in series [10], 230 U/mg; in [11], 273 U/mg. The Vmax in series [12] is 163 U/mg; in series [13] it was 230 U/mg; in series [14] it was 114 U/mg; in [15] it was 215 U/mg; in series [16], 308 U/mg; in series [17], 365 U/mg. Further, the Vmax in series [18] was 233 U/mg; in series [19], 300 U/mg; in series [20], 305 U/mg; in series [21], 300 U/mg.

On to IGF-1, for which, in series [22], the “Activation of transfected RAC-PKα” value is 46 fold and 38 fold; the “Half time for activation of transfected RAC-PKα” value worked out at 1 min.

Consider RPRTSS [RPRTSS], for which the Km in series [3] (phosphorylation by RAC-PKα) was greater than 500 µM.

Take RPRTASF: in series [3], the Km is 20 µM, the “V (0.1 mM)” value is 83 and the “Vmax (U/mg)” value was 213 U/mg.

With RPRASSF, in series [3], the Michaelis-Menten constant (Km) came out at 12 µM, the “V (0.1 mM)” value came out at 89 and the “Vmax (U/mg)” value is 230 U/mg.

As to KPRTSSF [KPRTSSF], in series [3] (phosphorylation by RAC-PKα), the Michaelis constant (Km) is greater than 500 µM.

Turning to RPRTSSF [RPRTSSF], the Km in series [3] (phosphorylation by RAC-PKα) turned out to be 5 µM.

Regarding insulin: insulin from Novo-Nordisk, the “Half-time (t0.5) of activation of RAC-PK” value in series [23] is 1 min. In addition, in series [22], the “Activation of transfected RAC-PKα” value is given as 20 fold and the “Half time for activation of transfected RAC-PKα” value amounted to 1 min. Also, in series [24], the “Increase in 32P-labelling of GSK3-α and GSK3-β” value is given as 60-100%; the “Inhibition of GSK3” value is 40-50%. In addition, in [5], the “Increase in RAC-PK activity” value was determined as 4.5 fold.

Consider `[O]=[V]([O-])([O-])[O-]` [vanadate], for which the “Increase in RAC-PK activity” value in series [5] is 11 fold.

Regarding RPKTSSF [RPKTSSF], in series [3] (phosphorylation by RAC-PKα), the Michaelis-Menten constant (Km) is greater than 500 µM.

B1: MBP: myelin basic protein, kinase assay substrate (protein, UniProt P02687 1-169, looked up)
Myelin basic protein: AAQKRPSQRSKYLASASTMDHARHGFLPRHRDTGILDSLGRFFGSDRGAPKRGSGKDGHHAARTTHYGSLPQKAQGHRPQDENPVVHFFKNIVTPRTPPPSQGKGRGLSLSRFSWGAEGQKPGFGYGGRASDYKSAHKGLKGHDAQGTLSKIFKLGGRDSRSGSPMARR
For B1, in [3], the Km is 5 µM and the “Vmax (U/mg)” value is recorded as 25 U/mg.
